Experimental data published in paper PMC10866649 (2024).

B1: Mouse neonatal Fc receptor (mFcRn) (receptor)
chain 1: SETRPPLMYHLTAVSNPSTGLPSFWATGWLGPQQYLTYNSLRQEADPCGAWMWENQVSWYWEKETTDLKSKEQLFLEALKTLEKILNGTYTLQGLLGCELASDNSSVPTAVFALNGEEFMKFNPRIGNWTGEWPETEIVANLWMKQPDAARKESEFLLNSCPERLLGHLERGRRNLEWKEPPSMRLKARPGNSGSSVLTCAAFSFYPPELKFRFLRNGLASGSGNCSTGPNGDGSFHAWSLLEVKRGDEHHYQCQVEHEGLAQPLTVDLDSSARSS
chain 2: IQKTPQIQVYSRHPPENGKPNILNCYVTQFHPPHIEIQMLKNGKKIPKVEMSDMSFSKDWSFYILAHTEFTPTETDTYACRVKHASMAEPKTVYWDRDM

What was measured:
[1] = target: B1; test: SPR
[2] = target: Wild-type human IgG1 Fc (Fc^WT) (human, N-linked glycan at N297, predominantly fucosylated agalactosylated or monogalactosylated); test: SPR

Binder	Kd [1]	Kd [2]
Human IgG1 Fc bearing the Abdeg mutations (Fc^Abdeg, efgartigimod) (domain or fragment) DKTHTCPPCPAPELLGGPSVFLFPPKPKDTLYITREPEVTCVVVDVSHEDPEVKFNWYVDGVEVHNAKTKPREEQYNSTYRVVSVLTVLHQDWLNGKEYKCKVSNKALPAPIEKTISKAKGQPREPQVYTLPPSRDELTKNQVSLTCLVKGFYPSDIAVEWESNGQPENNYKTTPPVLDSDGSFFLYSKLTVDKSRWQQGNVFSCSVMHEALKFHYTQKSLSLSPGK	0.27 nM	–
B1	–	70 nM
